Each block holds one molecule with its values, some of them ahead of it.
Experiments:
[1] = molecular target: recombinant soluble KIR2DL3 (entire extracellular domain, produced in E. coli) (human) (UniProt P43628); test: Biacore competition, immobilized KIR2DL3; first Ab DF200, competitor (second Ab) Pan2D; set-up: concentration or dose not given beside the values
[2] = molecular target: recombinant soluble KIR2DL3 (entire extracellular domain, produced in E. coli) (human) (UniProt P43628); test: Biacore competition, immobilized KIR2DL3; first Ab DF200, competitor (second Ab) 1-6F5; set-up: concentration or dose not given beside the values
[3] = molecular target: recombinant soluble KIR2DL3 (entire extracellular domain, produced in E. coli) (human) (UniProt P43628); test: Biacore, immobilized KIR2DL3; second Ab DF200 alone (field of first Ab 1-6F5)
[4] = molecular target: recombinant soluble KIR2DL3 (entire extracellular domain, produced in E. coli) (human) (UniProt P43628); test: Biacore competition, immobilized KIR2DL3; first Ab DF200, competitor (second Ab) 1-7F9; set-up: concentration or dose not given beside the values
[5] = molecular target: recombinant soluble KIR2DL3 (entire extracellular domain, produced in E. coli) (human) (UniProt P43628); test: Biacore SPR, KIR2DL3 immobilized on CM5, antibody as analyte (bivalent binding), Example 3
[6] = molecular target: recombinant soluble KIR2DL3 (entire extracellular domain, produced in E. coli) (human) (UniProt P43628); test: Biacore, immobilized KIR2DL3; second Ab DF200 injected after first Ab 1-6F5
[7] = molecular target: recombinant soluble KIR2DL3 (entire extracellular domain, produced in E. coli) (human) (UniProt P43628); test: Biacore, immobilized KIR2DL3; second Ab DF200 alone (field of first Ab 1-7F9)
[8] = molecular target: recombinant soluble KIR2DL3 (entire extracellular domain, produced in E. coli) (human) (UniProt P43628); test: Biacore, immobilized KIR2DL3; second Ab DF200 injected after first Ab 1-7F9
[9] = molecular target: recombinant soluble KIR2DL3 (entire extracellular domain, produced in E. coli) (human) (UniProt P43628); test: Biacore competition, immobilized KIR2DL3; first Ab DF200, competitor (second Ab) 1-6F1; set-up: concentration or dose not given beside the values
[10] = molecular target: recombinant soluble KIR2DL3 (entire extracellular domain, produced in E. coli) (human) (UniProt P43628); test: Biacore competition, immobilized KIR2DL3; first Ab DF200, competitor (second Ab) 1-4F1; set-up: concentration or dose not given beside the values
[11] = molecular target: recombinant soluble KIR2DL3 (entire extracellular domain, produced in E. coli) (human) (UniProt P43628); test: Biacore, immobilized KIR2DL3; second Ab DF200 injected after first Ab 1-4F1
[12] = molecular target: recombinant soluble KIR2DL3 (entire extracellular domain, produced in E. coli) (human) (UniProt P43628); test: Biacore competition, immobilized KIR2DL3; first Ab DF200, competitor (second Ab) GL183; set-up: concentration or dose not given beside the values
[13] = molecular target: recombinant soluble KIR2DL1 (entire extracellular domain, produced in E. coli) (human) (UniProt P43626); test: Biacore SPR, KIR2DL1 immobilized on CM5, antibody as analyte (bivalent binding), Example 3
[14] = molecular target: recombinant soluble KIR2DL3 (entire extracellular domain, produced in E. coli) (human) (UniProt P43628); test: Biacore, immobilized KIR2DL3; second Ab DF200 alone (field of first Ab 1-4F1)
[15] = molecular target: recombinant soluble KIR2DL3 (entire extracellular domain, produced in E. coli) (human) (UniProt P43628); test: Biacore, immobilized KIR2DL3; second Ab DF200 injected after first Ab 1-6F1
[16] = molecular target: recombinant soluble KIR2DL3 (entire extracellular domain, produced in E. coli) (human) (UniProt P43628); test: Biacore, immobilized KIR2DL3; second Ab DF200 alone (field of first Ab 1-6F1)
[17] = molecular target: recombinant soluble KIR2DL3 (entire extracellular domain, produced in E. coli) (human) (UniProt P43628); test: Biacore, immobilized KIR2DL3; second Ab GL183 injected after first Ab 1-4F1
[18] = molecular target: recombinant soluble KIR2DL3 (entire extracellular domain, produced in E. coli) (human) (UniProt P43628); test: Biacore, immobilized KIR2DL3; second Ab GL183 alone (field of first Ab 1-4F1)
[19] = molecular target: recombinant soluble KIR2DL3 (entire extracellular domain, produced in E. coli) (human) (UniProt P43628); test: Biacore, immobilized KIR2DL3; second Ab GL183 alone (field of first Ab 1-6F1)
[20] = molecular target: recombinant soluble KIR2DL3 (entire extracellular domain, produced in E. coli) (human) (UniProt P43628); test: Biacore competition, immobilized KIR2DL3; first Ab gl183, competitor (second Ab) 1-4F1; set-up: concentration or dose not given beside the values
[21] = molecular target: recombinant soluble KIR2DL3 (entire extracellular domain, produced in E. coli) (human) (UniProt P43628); test: Biacore, immobilized KIR2DL3; second Ab GL183 injected after first Ab 1-7F9
[22] = molecular target: recombinant soluble KIR2DL3 (entire extracellular domain, produced in E. coli) (human) (UniProt P43628); test: Biacore, immobilized KIR2DL3; second Ab GL183 injected after first Ab 1-6F1
[23] = molecular target: recombinant soluble KIR2DL3 (entire extracellular domain, produced in E. coli) (human) (UniProt P43628); test: Biacore competition, immobilized KIR2DL3; first Ab gl183, competitor (second Ab) 1-6F1; set-up: concentration or dose not given beside the values
[24] = molecular target: recombinant soluble KIR2DL3 (entire extracellular domain, produced in E. coli) (human) (UniProt P43628); test: Biacore competition, immobilized KIR2DL3; first Ab gl183, competitor (second Ab) DF200; set-up: concentration or dose not given beside the values
[25] = molecular target: recombinant soluble KIR2DL3 (entire extracellular domain, produced in E. coli) (human) (UniProt P43628); test: Biacore, immobilized KIR2DL3; second Ab GL183 alone (field of first Ab 1-7F9)
[26] = molecular target: recombinant soluble KIR2DL3 (entire extracellular domain, produced in E. coli) (human) (UniProt P43628); test: Biacore competition, immobilized KIR2DL3; first Ab gl183, competitor (second Ab) Pan2D; set-up: concentration or dose not given beside the values
[27] = molecular target: recombinant soluble KIR2DL3 (entire extracellular domain, produced in E. coli) (human) (UniProt P43628); test: Biacore competition, immobilized KIR2DL3; first Ab gl183, competitor (second Ab) 1-7F9; set-up: concentration or dose not given beside the values
[28] = molecular target: recombinant soluble KIR2DL3 (entire extracellular domain, produced in E. coli) (human) (UniProt P43628); test: Biacore, immobilized KIR2DL3; second Ab Pan2D alone (field of first Ab 1-7F9)
[29] = molecular target: recombinant soluble KIR2DL3 (entire extracellular domain, produced in E. coli) (human) (UniProt P43628); test: Biacore, immobilized KIR2DL3; second Ab Pan2D injected after first Ab 1-4F1
[30] = molecular target: recombinant soluble KIR2DL3 (entire extracellular domain, produced in E. coli) (human) (UniProt P43628); test: Biacore, immobilized KIR2DL3; second Ab Pan2D injected after first Ab 1-7F9
[31] = molecular target: T1, KIR2DS3 on transfected cells (human, UniProt Q14952 22-304); test: flow cytometry on cells transfected with KIR2DS3 (Figure 16)
T1 construct: whole, on cells

[32] = molecular target: recombinant soluble KIR2DL3 (entire extracellular domain, produced in E. coli) (human) (UniProt P43628); test: Biacore, immobilized KIR2DL3; second Ab Pan2D alone (field of first Ab 1-4F1)
[33] = molecular target: recombinant soluble KIR2DL3 (entire extracellular domain, produced in E. coli) (human) (UniProt P43628); test: Biacore, immobilized KIR2DL3; second Ab Pan2D injected after first Ab 1-6F1
[34] = molecular target: recombinant soluble KIR2DL3 (entire extracellular domain, produced in E. coli) (human) (UniProt P43628); test: Biacore, immobilized KIR2DL3; second Ab Pan2D alone (field of first Ab 1-6F1)
[35] = molecular target: recombinant soluble KIR2DL3 (entire extracellular domain, produced in E. coli) (human) (UniProt P43628); test: Biacore, immobilized KIR2DL3; second Ab Pan2D alone (field of first Ab 1-6F5)

T1 sequence (Q14952 22-304): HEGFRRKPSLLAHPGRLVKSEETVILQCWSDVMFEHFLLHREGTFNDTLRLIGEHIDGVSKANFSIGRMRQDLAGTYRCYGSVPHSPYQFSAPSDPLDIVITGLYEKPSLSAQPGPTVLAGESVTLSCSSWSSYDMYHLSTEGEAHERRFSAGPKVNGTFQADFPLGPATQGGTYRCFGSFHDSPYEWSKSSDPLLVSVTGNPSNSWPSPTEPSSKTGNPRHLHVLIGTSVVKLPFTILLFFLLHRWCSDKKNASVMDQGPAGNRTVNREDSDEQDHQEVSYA

- % inhibition of second antibody binding [1]: 75%
- % inhibition of second antibody binding [2]: 4%
- RU of second antibody alone (RU1) [3]: 800 RU
- % inhibition of second antibody binding [4]: 62%
- Kd [5]: 2 nM
- RU of second antibody after first antibody (RU2) [6]: 760 RU
- RU of second antibody alone (RU1) [7]: 770 RU
- RU of second antibody after first antibody (RU2) [8]: 450 RU
- % inhibition of second antibody binding [9]: 16%
- % inhibition of second antibody binding [10]: 75%
- RU of second antibody after first antibody (RU2) [11]: 210 RU
- % inhibition of second antibody binding [12]: 20%
- Kd [13]: 11 nM
- RU of second antibody alone (RU1) [14]: 1140 RU
- RU of second antibody after first antibody (RU2) [15]: 760 RU
- RU of second antibody alone (RU1) [16]: 790 RU
Molecule: murine monoclonal antibody DF200

- RU of second antibody after first antibody (RU2) [17]: 330 RU
- RU of second antibody alone (RU1) [18]: 1240 RU
- RU of second antibody alone (RU1) [19]: 620 RU
- % inhibition of second antibody binding [20]: 75%
- RU of second antibody after first antibody (RU2) [21]: 200 RU
- RU of second antibody after first antibody (RU2) [22]: 570 RU
- % inhibition of second antibody binding [23]: 18%
- % inhibition of second antibody binding [24]: 8%
- RU of second antibody alone (RU1) [25]: 800 RU
- % inhibition of second antibody binding [26]: 40%
- % inhibition of second antibody binding [27]: 76%
Molecule: GL183 (antibody)

- RU of second antibody alone (RU1) [28]: 870 RU
- RU of second antibody after first antibody (RU2) [29]: 890 RU
- RU of second antibody after first antibody (RU2) [30]: 830 RU
- binding result [31]: no binding (tested: 1 μg/ml)
- RU of second antibody alone (RU1) [32]: 2400 RU
- RU of second antibody after first antibody (RU2) [33]: 1090 RU
- RU of second antibody alone (RU1) [34]: 990 RU
- RU of second antibody alone (RU1) [35]: 990 RU
B1: murine monoclonal antibody NKVSF1 (Pan2D) (antibody, V domains shown)
VH: EVQLQQSGTVLARPGASVKMSCKASGYTFTSYWMHWMKQRPGQGLEWIGTIYPGNSDTNYNQKFKGKAKLTAVTSTNTAYMELSSLTNEDSAVYYCSRPTTATRSSAMDYWGQGTSVTVSS
VL: QIVLTQSPASMSASLGERVTMTCTASSSVSSSYLYWYQQKPGSSPKLWIYSTSNLASGVPARFSGSGSGTSYSLTISSMEAEDAATYYCHQYHRSPPTFGGGTKLEIKR
notes: Mouse mAb, bought from Serotec, cat

- binding result [31]: no binding (tested: 1 μg/ml)
B2: human monoclonal antibody 1-7F9 (antibody, human IgG4, kappa, V domains shown)
VH: QVQLVQSGAEVKKPGSSVKVSCKASGGTFSFYAISWVRQAPGQGLEWMGGFIPIFGAANYAQKFQGRVTITADESTSTAYMELSSLRSDDTAVYYCARIPSGSYYYDYDMDVWGQGTTVTVSS
VL: EIVLTQSPVTLSLSPGERATLSCRASQSVSSYLAWYQQKPGQAPRLLIYDASNRATGIPARFSGSGSGTDFTLTISSLEPEDFAVYYCQQRSNWMYTFGQGTKLEIKR
notes: also called HuKIR 1-7F9; mAb 1-7F9

Source: patent publication WO2006003179A2 (dated 2006)
